# Test results from patent US20250215071A1, “Novel Mcl-1 inhibitor and combination of Mcl-1 and a BH3 mimetic, such as a Bcl-2 inhibitor” (NETRIS PHARMA, priority 2022, published 2025).
# System: H322 cells
# Test: Cleaved active caspase-3 immunostaining of resected H322 tumors
# Type: in vivo, NMRI nude mice
# Procedure: FIG. 3. COMMD2 is required for UNC5B-induced cell death and tumor suppression. (A): Silencing COMMD2 inhibits UNC5B-induced DNA fragmentation. Stable Hela cells inducible for UNC5B were transfected with two distinct siRNA scramble (siCTRL) or targeting COMMD2 (siCOMMD2-1 and -2). Upon treatment for 18 hours with the indicated concentrations of doxycycline (Dox), DNA fragmentation was evaluated through FACS analysis (n=3, **** p<0.0001, Ordinary two-way ANOVA). Values are given as means±SEM. (B, C, D): Tumor growth inhibition driven by netrin-1 interference necessitates UNC5B and COMMD2. NMRI nude mice were engrafted with stable H322 cells, knock-down for luciferase (sgLUC, used as a non-targeting control), UNC5B (sgUNC5B) or COMMD2 (sgCOMMD2), generated with CRISPR-Cas-9-KRAB strategy. Tumors obtained from nude mice engrafted with stable H322 cells were lysed and gene expression was evaluated by quantitative RT-PCR (n=2-3, *p<0.05, Kruskal-Wallis test with Dunn's multiple comparisons test) (B). After tumor volume reached 50 mm^3, mice were intravenously treated three time per week with anti-netrin-1 (NP137) or control (Iso-mAb) antibodies and tumor growth was evaluated (n=10 mice/group, ^nsp>0.05, *p<0.05, Mann-Whitney test, two-tailed) (C). A histogram illustrating tumor volumes at 35 days after first treatment is indicated in (D) (n=10 mice/group, ^nsp>0.05, *p<0.05, *** p<0.001, Kruskal-Wallis test with uncorrected Dunn's test). (E). Silencing of UNC5B and COMMD2 restrains in vivo NP137-induced apoptosis. After sacrificing the mice, tumors were resected and apoptosis was quantified by immunostaining of active cleaved caspase-3. […]
# 5-week-old female athymic NMRI nude mice were obtained from Janvier Labs (Saint Bertevin, France). […] Tumor size was measured three times per week with a caliper. Tumor volume was calculated according to the formula v=0.5× (l×w2), where v is volume, l is length, and w is width. […]
molecule,measurement,setting,value
"NP137: humanized anti-netrin-1 monoclonal antibody, VH SEQ ID NO: 22, VL SEQ ID NO: 16, human IgG1 (antibody, V domains shown, human IgG1 constant region; humanized variant; MISC_FEATURE - CDR according to IGMT) VH: QVQLQQSGPGLVKPSQTLSLTCAISGYTFTSYNMHWVRQATGQGLEWMGAIYPGNGDTSYNQKFKGRLTISKDTSKNQVVLTMTNMDPVDTATYYCARGGTGFAYWGQG VL: DIQMTQSPSSLSASVGDRVTITCKASQSVSNDVAWYQQKPGQAPRLLIYYASNRYTGIPPRFSGSGYGTDFTLTINNIESEDAAYYFCQQDYSSPWTFGQG",percentage of caspase-3 positive cells,H322 tumors knocked-out for COMMD2,failed to detect a similar increase
same,percentage of caspase-3 positive cells,H322 tumors knocked-out for UNC5B,failed to detect a similar increase
same,"apoptosis, cleaved active caspase-3 positive cells",control H322 tumors (sgLUC),associated with apoptosis induction
